Substitutions are numbered along the chain they refer to. Read-outs that look alike come from different tables or passages of the source.

Seven molecules from PMC4942675 (Molecular Cell, 2016) can be followed below.

The target in experiment [1] is T1, S. cerevisiae Exo9 (nine-subunit exosome core, no Rrp44 subunit) (S. cerevisiae, UniProt P46948;Q05636;P53256;P25359;P48240;Q12277;P38792;Q08285;P53859). The experiment is described as follows: MST.
In experiment [2] the target is T1, S. cerevisiae Exo9 (nine-subunit …). The experiment is described as follows: pull-down.
The target is the same in experiment [3]. The experiment can be described thus: pull-down. This is another data set of the same source.
The target in experiment [4] is T2, Rrp43 (subunit of Exo10 in the crystal structure) (S. cerevisiae, UniProt P25359).
T2 sequence: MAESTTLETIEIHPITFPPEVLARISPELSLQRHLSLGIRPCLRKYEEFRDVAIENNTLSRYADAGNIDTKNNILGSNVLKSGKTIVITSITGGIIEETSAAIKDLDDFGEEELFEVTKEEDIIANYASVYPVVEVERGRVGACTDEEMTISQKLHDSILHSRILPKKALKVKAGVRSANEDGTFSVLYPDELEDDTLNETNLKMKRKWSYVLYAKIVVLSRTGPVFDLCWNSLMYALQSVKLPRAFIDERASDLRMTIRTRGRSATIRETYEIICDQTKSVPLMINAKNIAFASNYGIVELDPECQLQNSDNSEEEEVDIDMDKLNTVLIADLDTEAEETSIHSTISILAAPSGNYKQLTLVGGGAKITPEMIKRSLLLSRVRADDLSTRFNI
The experiment can be described thus: crystal structure.

B1: GFP-Ski7_(exomut-1) (Trp125Asp, Ile128Asp) (domain or fragment)
chain: DDKLNLEESDKADKEMNHYCFLKNDPCINQTDDFAFTNFIIKDKKNSLSTSIPLSSQNSSFLSLKKHNNELLGIFVPCNLPKTTRKVAIENFNRPSPDDIIQSAQLNAFN
Consider B1, for which the Kd in experiment [1] worked out at 50 nM. This lies in the double-digit nanomolar range.

B2: GFP-tagged Ski7exo (domain or fragment)
chain: B1 chain with D10W, D13I
In turn, B2 showed a Kd in experiment [1] of around 5 nM.

B3: Ski7 residues 116-235 (Exo9-interacting domain) (domain or fragment)
chain: DDKLNLEESWKAIKEMNHYCFLKNDPCINQTDDFAFTNFIIKDKKNSLSTSIPLSSQNSSFLSLKKHNNELLGIFVPCNLPKTTRKVAIENFNRPSPDDIIQSAQLNAFNEKLENLNIKS
B3: the binding result in experiment [2] is recorded as “binds”.

B4: GFP-tagged Rrp6exo (GFP-Sumo-Rrp6C, Rrp6 residues 518-693) (domain or fragment)
chain: EATPIPSSETKADGILLETISVPQIRDVMERFSVLCNSNISKSRAKPVTNSSILLGKILPREEHDIAYSKDGLPNKVKTEDIRIRAQNFKSALANLEDIIFEIEKPLVVPVKLEEIKTVDPASAPNHSPEIDNLDDLVVLKKKNIQKKQPAKEKGVTEKDAVDYSKIPNILSNKPG
In experiment [1], B4 gave a Kd of around 10 nM.

B5: GFP-Ski7_(exomut-3) (Ile189Asp, Phe190Asp) (domain or fragment)
chain: B1 chain with D10W, D13I, I74D, F75D
As for B5, the binding result in experiment [3] is “binds”.

B6: GFP-Ski7_(exomut-2) (Phe149Asp, Phe151Asp, Phe154Asp) (domain or fragment)
chain: B1 chain with D10W, D13I, F34D, F36D, F39D
Take B6: in experiment [3], the binding result is reported as “binds”.

B7: Mtr3 (subunit of Exo10 in the crystal structure) (natural protein)
chain: MNVQDRRRLLGPAAAKPMAFSNTTTHVPEKKSTDLTPKGNESEQELSLHTGFIENCNGSALVEARSLGHQTSLITAVYGPRSIRGSFTSQGTISIQLKNGLLEKYNTNELKEVSSFLMGIFNSVVNLSRYPKSGIDIFVYLTYDKDLTNNPQDDDSQSKMMSSQISSLIPHCITSITLALADAGIELVDMAGAGEANGTVVSFIKNGEEIVGFWKDDGDDEDLLECLDRCKEQYNRYRDLMISCLMNQET
Consider B7, for which the binding result in experiment [4] is recorded as “binds”.

Broadly, the Kd is the constant that tells how readily two partners part at equilibrium. Read a low Kd as tighter binding.
